From CN116370651A (SHANGHAI YUANZHI BIO TECH CO LTD, dated 2023)

Biological target: T1, 重组PSMA蛋白 (human, UniProt Q04609 44-750)
T1 construct: also called 人PSMA蛋白; 人PSMA重组蛋白
Experiment: SPR (Biacore); recombinant PSMA immobilised on CM5 chip, J591 as analyte at 0.125-4.0 μg/mL

T1 sequence (Q04609 44-750 limits assumed): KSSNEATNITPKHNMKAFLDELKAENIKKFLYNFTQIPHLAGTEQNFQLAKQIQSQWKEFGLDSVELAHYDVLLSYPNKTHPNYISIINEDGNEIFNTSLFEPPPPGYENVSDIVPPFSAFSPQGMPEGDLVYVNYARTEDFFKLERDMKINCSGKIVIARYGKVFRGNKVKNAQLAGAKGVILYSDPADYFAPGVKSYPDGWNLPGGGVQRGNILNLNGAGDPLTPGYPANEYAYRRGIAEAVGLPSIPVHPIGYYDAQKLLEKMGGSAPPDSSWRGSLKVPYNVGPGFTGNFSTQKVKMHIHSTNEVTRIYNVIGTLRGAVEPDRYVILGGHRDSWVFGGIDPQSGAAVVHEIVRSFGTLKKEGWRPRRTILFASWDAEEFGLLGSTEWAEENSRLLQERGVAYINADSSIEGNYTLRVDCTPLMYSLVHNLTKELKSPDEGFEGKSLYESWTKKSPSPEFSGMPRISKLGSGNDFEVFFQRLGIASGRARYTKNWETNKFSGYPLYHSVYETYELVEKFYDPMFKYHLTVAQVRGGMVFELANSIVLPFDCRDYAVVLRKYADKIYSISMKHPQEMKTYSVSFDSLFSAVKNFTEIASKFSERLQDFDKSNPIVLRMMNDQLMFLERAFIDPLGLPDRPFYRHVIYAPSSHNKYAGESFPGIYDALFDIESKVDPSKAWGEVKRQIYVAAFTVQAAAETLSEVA

B1: 人源化单抗J591 (antibody, V domains shown)
VH: EVQLQQSGPELKKPGTSVRISCKTSGYTFTEYTIHWVKQSHGKSLEWIGNINPNNGGTTYNQKFEDKATLTVDKSSSTAYMELRSLTSEDSAVYYCAAGWNFDYWGQGTTLTVSS
VL: DIVMTQSHKFMSTSVGDRVSIICKASQDVGTAVDWYQQKPGQSPKLLIYWASTRHTGVPDRFTGSGSGTDFTLTITNVQSEDLADYFCQQYNSYPLTFGAGTMLDLK
notes: Expressed from pcDNA3.0 in suspension host cells and purified on Protein A; also called 人源化抗体J591; J591单抗
With B1 the Kd was 1.61 nM.
